Laboratory results as given in publication PMC3539133.

Target: T1, dADAR dsRBD1 (UniProt Q9NII1 48-140)
T1 sequence: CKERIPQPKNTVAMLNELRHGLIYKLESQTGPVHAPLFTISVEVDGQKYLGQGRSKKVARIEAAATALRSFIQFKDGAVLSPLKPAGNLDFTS
Experiment: ITC

GGUAGUAUAACAAUAUCCGUGUUGUUAUAGUACC (structured_RNA) [GluR-2 R/G upper stem-loop (GluR-2 USL) with GluR-3 tetraloop]
Kd: 400 ± 50 nM
